Among the data in the RNAGym collection of RNA variant scans (doi:10.7554/elife.80360) are self-cleavage values, retold here.

B1: HDV Ribozyme (parent)
chain: GGCCGGCAUGGUCCCAGCCUCCUCGCUGGCGCCGGCUGGGCAACAUUCCGAGGGGACCGUCCCCUCGGUAAUGGCGAAUGGGACCCA

Variants of B1 are the subject of this data set. In words: self-cleavage, relative activity (ratio to wild type); higher = more cleavage; co-transcriptional.
Regarding C49U G73A, the self-cleavage stood at 0.716. With C49U G73C the figure was 0.409; with C49U G82U, 0.47.

Regarding C49U G82C, the self-cleavage is 0.264. The same measure for U47G G73U: 0.458; for U47G G73A: 0.852. As for U47G G73C, the self-cleavage was found to be 0.534. As to U47G U65A, the self-cleavage came to 0.942. Regarding G50C C66A, the self-cleavage worked out at 0.812. The same measure for G50C C66U: 0.954.

For the variant G50A G74C, the self-cleavage is 0.242.

Regarding G50A G74A, the self-cleavage came to 0.411.

On to U47C A83C, for which the self-cleavage was found to be 0.554. The same measure for U47C A83U: 0.378; for C49G U72C: 0.332; for C49U A83U: 0.391. For C48A A70U, the self-cleavage was found to be 0.985. Take C49A C86G: the self-cleavage was found to be 0.906.

As to U47G G54C, the self-cleavage amounted to 0.928.

Consider C49U G80U, for which the self-cleavage came to 0.219. The same measure for C49U G80C: 0.143; for C49G A51G: 0.688; for C49G A51C: 0.623.

On to G50A A87C, for which the self-cleavage was determined as 1.07. With U47A G52C, the self-cleavage was determined as 0.978.

Consider U47A A78G, for which the self-cleavage stood at 0.831. Regarding U47A A78U, the self-cleavage was 0.295.

On to U47A C85A, for which the self-cleavage was found to be 0.962. U47C C48G: the self-cleavage came out at 0.804. Take C49A G67C: the self-cleavage was 1.04.

Consider U47A G55C, for which the self-cleavage came out at 1.15. The same measure for C49G C84U: 0.429; for C48U A56G: 0.989. Turning to C48U A78G, the self-cleavage was found to be 0.522.

Regarding U47A A71U, the self-cleavage amounted to 0.657. As to U47A A71C, the self-cleavage was found to be 0.85. With U47G A70U the figure was 1.4; with U47G A70C, 1.22; with C48A G55A, 0.972. The same measure for U47C C84A: 0.554; for U47G G55U: 1.07. The same measure for G50A G67A: 1.17; for G50A G67U: 1.06; for G50A G67C: 0.869.

As for U47A G68A, the self-cleavage worked out at 1.09.

For U47A G68U, the self-cleavage worked out at 0.944.

In the case of C49G G59A, the self-cleavage amounted to 1.11. C48G U72A: the self-cleavage was found to be 0.718.

On to C49U G74A, for which the self-cleavage is 0.443. With C49U G74C, the self-cleavage amounted to 0.374. As for C49A A70G, the self-cleavage came out at 0.689. On to C49G C57G, for which the self-cleavage is 0.997. With G50A G52A, the self-cleavage was found to be 0.888. With U47A C49A the figure was 0.886; with C49U A87U, 0.939; with C49U A87G, 0.959.

As for G50A C61U, the self-cleavage was found to be 0.649.

For U47G C63G, the self-cleavage is 0.415.

For the variant C48G A70U, the self-cleavage turned out to be 0.506.

On to C48U G81U, for which the self-cleavage worked out at 0.327.

Turning to U47G A71G, the self-cleavage was 1.11. With G50A U72G, the self-cleavage came to 0.582. Turning to C49A G55A, the self-cleavage was 0.816.

As for C49A G55U, the self-cleavage was 1.18.

For C48G A56C, the self-cleavage was found to be 0.875. With C48G A56U the figure was 1.03.

For the variant C49U C58U, the self-cleavage came to 0.991. With C49A G68U the figure was 0.817; with C49A G68C, 0.849. As to U46G U72A, the self-cleavage is 0.266. Regarding C48U G50A, the self-cleavage was determined as 0.888. With G50A G59C the figure was 1.31; with G50A G82C, 0.409; with G50C A51C, 0.814. The same measure for U47A C75U: 0.203; for U47A C75A: 0.138; for U47A G53C: 1.19.

On to U47A G53U, for which the self-cleavage amounted to 0.755.

As for C49U C63A, the self-cleavage is 1. With C49U C63G the figure was 0.396. With U47G G52A the figure was 0.978; with U47G G52C, 0.895; with G50A C62A, 0.694.

As for G50A C62G, the self-cleavage was 0.219. The same measure for C49U: 0.96. In the case of C49A, the self-cleavage came to 0.965. The same measure for C49G: 0.905.

As for C49U C66U, the self-cleavage came to 0.899.

As for G50A, the self-cleavage is 0.98. The same measure for G50C: 0.963; for C49G C66U: 0.646; for G50A A77U: 0.721. The same measure for C49G U60A: 0.923.

Consider C49G U60G, for which the self-cleavage was found to be 0.762. The same measure for C49G U60C: 0.831; for C48G G80U: 0.244; for C49U A78U: 0.437. With U47G C86G the figure was 0.95; with U47A G59U, 0.933. The same measure for U47A G74C: 0.104. Turning to C48G G50U, the self-cleavage turned out to be 0.941. Consider C49A A51C, for which the self-cleavage is 0.297. With C49A A51G the figure was 0.748; with C49G G50A, 0.793.

On to C49G G50C, for which the self-cleavage was determined as 0.587.

As for G50C C58U, the self-cleavage was 1.04. The same measure for G50C C58G: 0.796. As to U47G C62U, the self-cleavage was 0.923.

As to C48U C64U, the self-cleavage is 0.997.

In the case of G50A C57G, the self-cleavage was 0.886. Turning to U46G G74C, the self-cleavage came to 0.201. With U47C G59C the figure was 1.09; with U47C G59U, 0.95.

Regarding G50A A78U, the self-cleavage was found to be 0.4. With C49G A83G the figure was 0.378; with C49U G81U, 0.314; with C49U U79A, 0.811. The same measure for C49A C64G: 0.356. As to C49U G76C, the self-cleavage turned out to be 0.867. With C49G C63A, the self-cleavage is 0.489. With U47C U72A the figure was 0.65; with U47G G74U, 0.434; with C49U U65G, 0.939. For C49G C62G, the self-cleavage is 0.133. Turning to U47A C63U, the self-cleavage is 1. With C48A U69A the figure was 0.814.

C48A U69G: the self-cleavage worked out at 0.997. The same measure for C48A U69C: 0.892. In the case of C49A C57G, the self-cleavage turned out to be 0.898. Turning to G50C C57U, the self-cleavage amounted to 1.04. The same measure for G50C C57G: 1.12; for C48U C49G: 0.982. The same measure for C48U C49U: 0.85. The same measure for C48U C49A: 1.05. In the case of U47A U72C, the self-cleavage amounted to 0.688. The same measure for U46G G76U: 0.73. With C49A C63A the figure was 0.597; with C48U G54U, 1.02. On to C48U G54C, for which the self-cleavage was determined as 1.2.

As to U47G C85U, the self-cleavage is 1.21.

Take C49A G81U: the self-cleavage was 0.26.

Regarding U47C G54U, the self-cleavage is 1.14. C48A G80A: the self-cleavage came to 0.293. The same measure for U47C G52U: 0.698; for C48A C84U: 0.819. In the case of C48A C84A, the self-cleavage is 1.08.

As for U47A G67C, the self-cleavage is 1.12. In the case of C48U U65A, the self-cleavage was determined as 0.876. With U47C C61U the figure was 0.872.

As to C48G A78U, the self-cleavage came out at 0.142. In the case of U47C G50U, the self-cleavage was 0.733. Turning to U47C G50C, the self-cleavage stood at 0.831. With U47C C57A the figure was 0.875.

Turning to U47C C57G, the self-cleavage amounted to 0.677. Turning to C49U G55C, the self-cleavage was found to be 0.906.

On to U47G G76U, for which the self-cleavage stood at 1.22. Consider C48G C57U, for which the self-cleavage is 1.04. Consider C48G C57A, for which the self-cleavage was found to be 0.798. With C49A C84A the figure was 1.05. In the case of C49G C61G, the self-cleavage is 0.618. For the variant C49G G76A, the self-cleavage was found to be 1.1. Consider U47A C57G, for which the self-cleavage was 0.898. The same measure for C49G G82C: 0.16. On to C49G G82U, for which the self-cleavage was found to be 0.123. The same measure for G50A G54C: 0.628; for G50A C85G: 0.878; for U47G U69G: 0.776.
